Biological target: Nanoluc‐RXFP2 (UniProt Q8WXD0 1-754)
Assay: FRET or BRET

Chain of Nanoluc‐RXFP2 (Q8WXD0 whole entry): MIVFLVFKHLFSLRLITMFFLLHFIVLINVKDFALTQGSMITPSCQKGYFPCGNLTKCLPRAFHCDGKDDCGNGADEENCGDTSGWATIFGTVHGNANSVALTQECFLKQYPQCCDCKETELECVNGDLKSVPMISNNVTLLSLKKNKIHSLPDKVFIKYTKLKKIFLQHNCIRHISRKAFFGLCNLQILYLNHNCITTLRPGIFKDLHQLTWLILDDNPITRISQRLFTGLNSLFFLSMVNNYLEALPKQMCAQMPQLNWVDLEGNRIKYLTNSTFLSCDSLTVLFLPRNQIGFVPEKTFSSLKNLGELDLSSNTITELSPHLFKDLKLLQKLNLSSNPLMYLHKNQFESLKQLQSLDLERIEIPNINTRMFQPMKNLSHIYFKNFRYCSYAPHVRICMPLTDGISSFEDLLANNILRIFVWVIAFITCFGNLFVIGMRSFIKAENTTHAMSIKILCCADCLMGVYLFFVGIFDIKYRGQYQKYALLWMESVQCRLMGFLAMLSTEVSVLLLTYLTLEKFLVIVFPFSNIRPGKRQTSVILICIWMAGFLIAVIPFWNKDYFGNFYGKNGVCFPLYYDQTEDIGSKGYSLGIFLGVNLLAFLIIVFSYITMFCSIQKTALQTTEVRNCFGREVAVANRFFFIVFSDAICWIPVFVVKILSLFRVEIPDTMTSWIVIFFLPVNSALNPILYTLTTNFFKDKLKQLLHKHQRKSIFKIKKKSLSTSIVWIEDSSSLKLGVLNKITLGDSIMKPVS

BRET signal relative to that of Nanoluc-RXFP1 with mCitrine-RXFP1: ~75%
B1: mCitrine‐RXFP1 (receptor)
chain: QDVKCSLGYFPCGNITKCLPQLLHCNGVDDCGNQADEDNCGDNNGWSLQFDKYFASYYKMTSQYPFEAETPECLVGSVPVQCLCQGLELDCDETNLRAVPSVSSNVTAMSLQWNLIRKLPPDCFKNYHDLQKLYLQNNKITSISIYAFRGLNSLTKLYLSHNRITFLKPGVFEDLHRLEWLIIEDNHLSRISPPTFYGLNSLILLVLMNNVLTRLPDKPLCQHMPRLHWLDLEGNHIHNLRNLTFISCSNLTVLVMRKNKINHLNENTFAPLQKLDELDLGSNKIENLPPLIFKDLKELSQLNLSYNPIQKIQANQFDYLVKLKSLSLEGIEISNIQQRMFRPLMNLSHIYFKKFQYCGYAPHVRSCKPNTDGISSLENLLASIIQRVFVWVVSAVTCFGNIFVICMRPYIRSENKLYAMSIISLCCADCLMGIYLFVIGGFDLKFRGEYNKHAQLWMESTHCQLVGSLAILSTEVSVLLLTFLTLEKYICIVYPFRCVRPGKCRTITVLILIWITGFIVAFIPLSNKEFFKNYYGTNGVCFPLHSEDTESIGAQIYSVAIFLGINLAAFIIIVFSYGSMFYSVHQSAITATEIRNQVKKEMILAKRFFFIVFTDALCWIPIFVVKFLSLLQVEIPGTITSWVVIFILPINSALNPILYTLTTRPFKEMIHRFWYNYRQRKSMDSKGQKTYAPSFIWVEMWPLQEMPPELMKPDLFTYPCEMSLISQSTRLNSYS

From article PMC6667744 (Pharmacology Research & Perspectives, 2019)
